B1: r11_951_TrROS_Hall (parent)
chain: KKKYVIKVYFEDTGKEVEIEAESKEEALEAAKRLAEELGLKIKKVEIYP
B2: r4_43_TrROS_Hall (parent)
chain: DLVTIKVPLENLEEIKKAAEKAGFKIVSISYDKENKEVTIVIEKKK

Variants of: B1
Assay: folding stability dG (cDNA display proteolysis); higher = more stable
Conditions: PBS, room temperature

Variant	folding stability dG [kcal/mol]
KKKEVIKVYFEDTGKEVEIEAESKEEALEAAKRLAEELGLKIKKVEIYP [Y4E]	2.73
KKKMVIKVYFEDTGKEVEIEAESKEEALEAAKRLAEELGLKIKKVEIYP [Y4M]	3.98
KKKHVIKVYFEDTGKEVEIEAESKEEALEAAKRLAEELGLKIKKVEIYP [Y4H]	3.58
KKKKVIKVYFEDTGKEVEIEAESKEEALEAAKRLAEELGLKIKKVEIYP [Y4K]	2.9
KKKYTIKVYFEDTGKEVEIEAESKEEALEAAKRLAEELGLKIKKVEIYP [V5T]	4.47
KKKYGIKVYFEDTGKEVEIEAESKEEALEAAKRLAEELGLKIKKVEIYP [V5G]	3.95
KKKYFIKVYFEDTGKEVEIEAESKEEALEAAKRLAEELGLKIKKVEIYP [V5F]	4.42
KKKYQIKVYFEDTGKEVEIEAESKEEALEAAKRLAEELGLKIKKVEIYP [V5Q]	4.27
KKKYDIKVYFEDTGKEVEIEAESKEEALEAAKRLAEELGLKIKKVEIYP [V5D]	3
KKKYEIKVYFEDTGKEVEIEAESKEEALEAAKRLAEELGLKIKKVEIYP [V5E]	3.42
KKKYKIKVYFEDTGKEVEIEAESKEEALEAAKRLAEELGLKIKKVEIYP [V5K]	4.63
KKKYNIKVYFEDTGKEVEIEAESKEEALEAAKRLAEELGLKIKKVEIYP [V5N]	4.12
KKKYRIKVYFEDTGKEVEIEAESKEEALEAAKRLAEELGLKIKKVEIYP [V5R]	4.66
KKKYCIKVYFEDTGKEVEIEAESKEEALEAAKRLAEELGLKIKKVEIYP [V5C]	3.83
KKKYHIKVYFEDTGKEVEIEAESKEEALEAAKRLAEELGLKIKKVEIYP [V5H]	4.32
KKKYIIKVYFEDTGKEVEIEAESKEEALEAAKRLAEELGLKIKKVEIYP [V5I]	4.29
KKKYPIKVYFEDTGKEVEIEAESKEEALEAAKRLAEELGLKIKKVEIYP [V5P]	2.38
KKKYSIKVYFEDTGKEVEIEAESKEEALEAAKRLAEELGLKIKKVEIYP [V5S]	4.3
KKKYAIKVYFEDTGKEVEIEAESKEEALEAAKRLAEELGLKIKKVEIYP [V5A]	4.35
KKKYMIKVYFEDTGKEVEIEAESKEEALEAAKRLAEELGLKIKKVEIYP [V5M]	4.31

Variant	folding stability dG [kcal/mol]
KKKYLIKVYFEDTGKEVEIEAESKEEALEAAKRLAEELGLKIKKVEIYP [V5L]	4.13
KSKYVIKVYFEDTGKEVEIEAESKEEALEAAKRLAEELGLKIKKVEIYP [K2S]	4.52
KLKYVIKVYFEDTGKEVEIEAESKEEALEAAKRLAEELGLKIKKVEIYP [K2L]	4.61
KMKYVIKVYFEDTGKEVEIEAESKEEALEAAKRLAEELGLKIKKVEIYP [K2M]	4.59
KYKYVIKVYFEDTGKEVEIEAESKEEALEAAKRLAEELGLKIKKVEIYP [K2Y]	4.42
KTKYVIKVYFEDTGKEVEIEAESKEEALEAAKRLAEELGLKIKKVEIYP [K2T]	4.46
KQKYVIKVYFEDTGKEVEIEAESKEEALEAAKRLAEELGLKIKKVEIYP [K2Q]	4.34
KDKYVIKVYFEDTGKEVEIEAESKEEALEAAKRLAEELGLKIKKVEIYP [K2D]	3.85
KGKYVIKVYFEDTGKEVEIEAESKEEALEAAKRLAEELGLKIKKVEIYP [K2G]	4.29
KCKYVIKVYFEDTGKEVEIEAESKEEALEAAKRLAEELGLKIKKVEIYP [K2C]	4.46
KEKYVIKVYFEDTGKEVEIEAESKEEALEAAKRLAEELGLKIKKVEIYP [K2E]	4.29
KWKYVIKVYFEDTGKEVEIEAESKEEALEAAKRLAEELGLKIKKVEIYP [K2W]	4.66
KVKYVIKVYFEDTGKEVEIEAESKEEALEAAKRLAEELGLKIKKVEIYP [K2V]	4.34
KRKYVIKVYFEDTGKEVEIEAESKEEALEAAKRLAEELGLKIKKVEIYP [K2R]	4.48
KFKYVIKVYFEDTGKEVEIEAESKEEALEAAKRLAEELGLKIKKVEIYP [K2F]	4.57
KPKYVIKVYFEDTGKEVEIEAESKEEALEAAKRLAEELGLKIKKVEIYP [K2P]	3.73
KNKYVIKVYFEDTGKEVEIEAESKEEALEAAKRLAEELGLKIKKVEIYP [K2N]	4.24
KIKYVIKVYFEDTGKEVEIEAESKEEALEAAKRLAEELGLKIKKVEIYP [K2I]	4.36
KAKYVIKVYFEDTGKEVEIEAESKEEALEAAKRLAEELGLKIKKVEIYP [K2A]	4.43
KHKYVIKVYFEDTGKEVEIEAESKEEALEAAKRLAEELGLKIKKVEIYP [K2H]	4.51

Variants of: B2
Assay: as above
Conditions: PBS, room temperature

Variant	folding stability dG [kcal/mol]
DLVTIKVPLENLEEIKKAAEKAGFKIVSISYDKENKEVTIVIEKKQ [K46Q]	3.86
DLVTIKVPLENLEEIKKAAEKAGFKIVSISYDKENKEVTIVIEKKS [K46S]	3.72
DLVTIKVPLENLEEIKKAAEKAGFKIVSISYDKENKEVTIVIEKKN [K46N]	3.49
DLVTIKVPLENLEEIKKAAEKAGFKIVSISYDKENKEVTIVIEKKT [K46T]	3.82
DLVTIKVPLENLEEIKKAAEKAGFKIVSISYDKENKEVTIVIEKKH [K46H]	4.17
DLVTIKVPLENLEEIKKAAEKAGFKIVSISYDKENKEVTIVIEKKY [K46Y]	4.33
DLVTIKVPLENLEEIKKAAEKAGFKIVSISYDKENKEVTIVIEKKM [K46M]	3.55
DLVTIKVPLENLEEIKKAAEKAGFKIVSISYDKENKEVTIVIEKKL [K46L]	3.65
DLVTIKVPLENLEEIKKAAEKAGFKIVSISYDKENKEVTIVIEKKW [K46W]	4.4
DLVTIKVPLENLEEIKKAAEKAGFKIVSISYDKENKEVTIVIEKKR [K46R]	3.68
DLVTIKVPLENLEEIKKAAEKAGFKIVSISYDKENKEVTIVIEKKP [K46P]	3.71
DLVTIKVPLENLEEIKKAAEKAGFKIVSISYDKENKEVTIVIEKKI [K46I]	3.61
DLVTIKVPLENLEEIKKAAEKAGFKIVSISYDKENKEVTIVIEKKV [K46V]	3.93

Source: the MegaScale stability set (Tsuboyama et al. 2023)
